# T1: 4.1R-CTD64 (last 64 amino acids of the C-terminal domain of human protein 4.1R) (human, 15N labelled)
# T1 construct: protein 4.1R, human, last 64 amino acids (part of the C-terminal domain, CTD); Cloned with NdeI into a modified pET15b with a TEV site; also called 4.1R-CTD64 subdomain; 64 amino acids subdomain
# T1 chain: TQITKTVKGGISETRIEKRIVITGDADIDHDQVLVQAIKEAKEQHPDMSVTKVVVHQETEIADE
# B1: NuMA1 interacting peptide (N1I), residues 1785-1810 of NuMA1 (peptide)
# peptide: Ac-DSGRKTRSARRRTTQIINITMTKKLD-NH2
# notes: also called NI1; non-phosphorylated NuMA peptide; source: synthetic peptide, bought: Caslo (Denmark)
# Molecular target: T1, 4.1R-CTD64 (last 64 amino acids of the …)
# Experiment: NMR titration; 15N labelled 4.1R-CTD64 (0.1 mM, 100 mM Na2HPO4, 90% H2O/10% D2O) titrated with NuMA1 peptide up to 20:1, followed by 1H-15N HSQC, pH 4.9, 25°C; chemical shift perturbation analysis
# Conditions: both partners purified
binder,measurement,value
B1,binding result,binds

# From article PMC2834593, “NMR characterisation of the minimal interacting regions of centrosomal proteins 4.1R and NuMA1: effect of phosphorylation” (BMC Biochemistry, 2010)
